Assays:
[1] = molecular target: T1, PfTrpA (α-subunit of tryptophan synthase from Pyrococcus furiosus) (Pyrococcus furiosus, UniProt Q8U094 1-248); assay: inferred from inhibition of enzyme activity on adding PfTrpA
T1 construct: Expressed in E. coli; Purified by Q HP HiTrap flow-through, ammonium sulfate precipitation and phenyl Sepharose chromatography; also called P. furiosus TrpA
T1 sequence (looked up): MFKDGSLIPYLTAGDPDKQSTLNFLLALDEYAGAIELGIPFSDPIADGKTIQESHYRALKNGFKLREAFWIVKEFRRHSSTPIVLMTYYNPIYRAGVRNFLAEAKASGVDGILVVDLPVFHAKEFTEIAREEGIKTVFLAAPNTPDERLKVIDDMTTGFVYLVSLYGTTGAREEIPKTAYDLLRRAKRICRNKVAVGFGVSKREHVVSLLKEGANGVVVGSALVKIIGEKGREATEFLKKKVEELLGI

[2] = molecular target: T2, TmTrpB (wild-type β-subunit of tryptophan synthase from Thermotoga maritima)
T2 chain: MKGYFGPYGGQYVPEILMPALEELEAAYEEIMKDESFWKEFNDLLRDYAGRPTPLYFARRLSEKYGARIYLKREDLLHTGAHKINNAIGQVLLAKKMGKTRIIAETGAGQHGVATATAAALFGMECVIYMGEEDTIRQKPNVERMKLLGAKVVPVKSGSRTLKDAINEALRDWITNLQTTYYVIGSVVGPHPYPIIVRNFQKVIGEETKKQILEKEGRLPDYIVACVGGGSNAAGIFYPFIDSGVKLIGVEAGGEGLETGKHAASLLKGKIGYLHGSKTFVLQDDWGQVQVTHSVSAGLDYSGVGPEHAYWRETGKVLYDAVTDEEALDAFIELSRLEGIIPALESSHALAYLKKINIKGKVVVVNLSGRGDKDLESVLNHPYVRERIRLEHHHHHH

[3] = molecular target: T3, PfTrpB^4D11 (PfTrpB E17G, I68V, T292S, F274S, T321A)
T3 chain: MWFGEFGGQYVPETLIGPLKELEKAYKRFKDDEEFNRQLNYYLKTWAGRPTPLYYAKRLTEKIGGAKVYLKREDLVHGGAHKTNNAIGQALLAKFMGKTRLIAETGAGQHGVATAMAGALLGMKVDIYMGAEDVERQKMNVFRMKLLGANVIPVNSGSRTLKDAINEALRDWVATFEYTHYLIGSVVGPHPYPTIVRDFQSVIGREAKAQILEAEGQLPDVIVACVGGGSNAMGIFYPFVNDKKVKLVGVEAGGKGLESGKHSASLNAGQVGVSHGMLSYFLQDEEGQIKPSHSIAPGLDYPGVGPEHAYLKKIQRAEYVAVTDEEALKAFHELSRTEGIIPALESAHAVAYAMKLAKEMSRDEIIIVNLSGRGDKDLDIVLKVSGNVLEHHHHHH

[4] = molecular target: T4, PfTrpB^0B2 (PfTrpB P12L, E17G, I68V, T292S, F274S, T321A)
T4 chain: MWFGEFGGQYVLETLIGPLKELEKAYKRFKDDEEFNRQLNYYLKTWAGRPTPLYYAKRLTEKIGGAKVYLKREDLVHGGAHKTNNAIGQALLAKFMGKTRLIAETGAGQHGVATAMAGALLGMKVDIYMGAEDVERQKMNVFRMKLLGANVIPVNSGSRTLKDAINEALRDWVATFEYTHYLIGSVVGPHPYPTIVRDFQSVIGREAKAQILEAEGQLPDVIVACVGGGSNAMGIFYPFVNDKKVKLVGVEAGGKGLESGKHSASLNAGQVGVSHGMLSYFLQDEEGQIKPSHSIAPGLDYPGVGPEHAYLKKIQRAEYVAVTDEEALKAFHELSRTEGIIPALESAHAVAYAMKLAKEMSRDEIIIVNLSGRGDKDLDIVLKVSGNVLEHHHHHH

[5] = molecular target: T5, PfTrpB (wild-type β-subunit of tryptophan synthase from Pyrococcus furiosus)
T5 chain: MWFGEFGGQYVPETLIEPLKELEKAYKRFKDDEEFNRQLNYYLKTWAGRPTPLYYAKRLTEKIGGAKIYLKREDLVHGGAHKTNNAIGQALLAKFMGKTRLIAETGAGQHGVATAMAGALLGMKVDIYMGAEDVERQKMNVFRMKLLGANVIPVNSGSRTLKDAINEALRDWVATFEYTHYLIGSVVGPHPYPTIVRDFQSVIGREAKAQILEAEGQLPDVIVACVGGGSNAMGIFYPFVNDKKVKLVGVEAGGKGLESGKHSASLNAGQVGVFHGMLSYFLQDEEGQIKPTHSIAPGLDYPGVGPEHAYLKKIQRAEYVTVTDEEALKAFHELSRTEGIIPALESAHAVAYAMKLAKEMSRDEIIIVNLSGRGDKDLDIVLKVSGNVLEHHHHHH

[6] = molecular target: T6, PfTrpB^2G9 (PfTrpB T292S)
T6 chain: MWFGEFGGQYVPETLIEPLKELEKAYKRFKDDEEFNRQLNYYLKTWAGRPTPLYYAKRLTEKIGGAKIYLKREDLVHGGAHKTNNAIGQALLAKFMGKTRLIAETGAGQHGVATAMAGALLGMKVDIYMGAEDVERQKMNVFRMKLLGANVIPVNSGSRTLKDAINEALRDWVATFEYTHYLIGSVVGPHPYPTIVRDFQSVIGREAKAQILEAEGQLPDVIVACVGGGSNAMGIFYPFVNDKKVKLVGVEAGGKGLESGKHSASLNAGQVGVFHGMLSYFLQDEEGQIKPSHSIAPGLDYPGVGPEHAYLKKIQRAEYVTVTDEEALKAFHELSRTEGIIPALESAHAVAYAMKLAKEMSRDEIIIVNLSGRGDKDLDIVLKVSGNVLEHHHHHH

B1: PfTrpB^0B2 (PfTrpB P12L, E17G, I68V, T292S, F274S, T321A) (enzyme)
chain: MWFGEFGGQYVLETLIGPLKELEKAYKRFKDDEEFNRQLNYYLKTWAGRPTPLYYAKRLTEKIGGAKVYLKREDLVHGGAHKTNNAIGQALLAKFMGKTRLIAETGAGQHGVATAMAGALLGMKVDIYMGAEDVERQKMNVFRMKLLGANVIPVNSGSRTLKDAINEALRDWVATFEYTHYLIGSVVGPHPYPTIVRDFQSVIGREAKAQILEAEGQLPDVIVACVGGGSNAMGIFYPFVNDKKVKLVGVEAGGKGLESGKHSASLNAGQVGVSHGMLSYFLQDEEGQIKPSHSIAPGLDYPGVGPEHAYLKKIQRAEYVAVTDEEALKAFHELSRTEGIIPALESAHAVAYAMKLAKEMSRDEIIIVNLSGRGDKDLDIVLKVSGNVLEHHHHHH
notes: not shown: C-terminal his-tag from pET22(b)+
- binding result [1]: binds

B2: TmTrpA (α-subunit of tryptophan synthase from Thermotoga maritima) (protein)
chain: MKGFIAYIPAGFPDLETTRKILIALNELGITGVEIGVPFSDPVADGPVIQLAHSVALRNGVTIKKILEMLSEISVDYDLYLMSYLNPIVNYPEGKEKLLDELKKLGVKGLIIPDLPLREVKNVDIAYPIVPFVAPNTKDEEIDLINSVQAPFVYYISRYGVTGEREDLPFADHIKRVKERIKLPLFVGFGISRHEQVKKVWEIADGVIVGSALVRIMEENPKDEIPRKVVEKVKELLGK
- kcat (s^-1) of the TmTrpS complex [2]: 2.2 s⁻¹

B3: PfTrpA (α-subunit of tryptophan synthase from Pyrococcus furiosus) (protein)
chain: MFKDGSLIPYLTAGDPDKQSTLNFLLALDEYAGAIELGIPFSDPIADGKTIQESHYRALKNGFKLREAFWIVKEFRRHSSTPIVLMTYYNPIYRAGVRNFLAEAKASGVDGILVVDLPVFHAKEFTEIAREEGIKTVFLAAPNTPDERLKVIDDMTTGFVYLVSLYGTTGAREEIPKTAYDLLRRAKRICRNKVAVGFGVSKREHVVSLLKEGANGVVVGSALVKIIGEKGREATEFLKKKVEELLGI
- kcat change with TrpA [3]: 0.3 fold
- kcat change with TrpA [4]: 0.04 fold
- increase in catalytic efficiency [5]: 12-fold increase in catalytic efficiency
- kcat change with TrpA [5]: 3.2 fold
- kcat change with TrpA [6]: 0.34 fold

Reference: US20160298152A1 (CALIFORNIA INSTITUTE OF TECHNOLOGY, published 2016)
